Test results: patent US11945858B2, “Antibodies and antibody fragments against HNAV1.7 channel and their use in pain and cancer indications” (NATIONAL RESEARCH COUNCIL OF CANADA, priority 2018, dated 2024)
“Also recorded” adds a separate entry of the source.

Tests used:
[1] = tested on: CFA-induced thermal hyperalgesia; test: Hargreaves Model of Hyperalgesia in rats; format: in vivo, rat
Summary of the method: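 Rats aged 4-6 weeks (180-220 g) received 50 μl of complete Freund's adjuvant, an emulsion of heat-killed M. tuberculosis in oil:saline 2:1, into the right hind paw to produce inflammatory pain. Baseline paw withdrawal latency was recorded 48 h later, and test antibodies were then given by intraplantar injection.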

[2] = tested on: OD1-evoked Nav1.7-mediated spontaneous pain behaviours; format: in vivo, mouse; details: 100 μg, injected 60 minutes prior to OD1; 20 min after the injection
FC5DIE3IR [3] = biological target: T1, FC5DIE3IR (Homo sapiens, UniProt Q15858); test: Surface Plasmon Resonance of mAbs, FC5DIE3IR; format: binding
T1 construct: The supernatant was collected and loaded on a 5 ml MabSelect™ SuRe™ column; made in house; host or cells: CHO-3E7 (transient, pTT5 vector), purified from supernatant
Experimental: (§1) Surface Plasmon Resonance of mAbs. FC5 and FC5DIE3IR proteins were SEC purified using a Superdex 75 column (GE Healthcare) connected to an AKTAPurifier (GE Healthcare) in HBS-EP+ running buffer (10 mM HEPES, pH 7.4, containing 150 mM NaCl, 3 mM EDTA and 0.05% P20) at a flow rate of 1 ml/min. Monomeric eluted peaks were used to flow over Fc-capture 3A8 mAb surfaces. To prepare the 3A8 mAb surfaces, approximately 6000 RUs of anti-mouse IgG (GE Healthcare) was first immobilized on CM5 Series S sensor chips (GE Healthcare) at pH 5.0, using standard amine coupling methods previously reported (Hussack et al., 2011) and according to the manufacturer's instructions (GE Healthcare). HBS-EP running buffer used for SPR experiments. The mAb 3A8 was captured on the anti-mouse IgG surface using 10 μg/ml of mAb, 30 sec contact time and flow rate of 10 μl/min. IMAC-purified DI-D VHH was passed through a Superdex 75 (GE Healthcare) column for SEC purification in HBS-EP buffer (10 mM HEPES, pH 7.4, containing 150 mM NaCl, 3 mM EDTA and 0.005% P20), connected to an AKTAPurifier (GE Healthcare) at a flow rate of 1 ml/min. Test binding experiments of FC5 control and FC5DIE3IR involved flowing 1 μM concentrations of SEC-pure material over the mAb surface at a flow rate of 30 μl/min for 5 min. Surfaces could be regenerated using 10 mM glycine, pH 1.7, with a 120 sec pulse at 20 μl/min. All SPR experiments were evaluated with Biacore T200 Software v 3.0. For kinetic analysis, single cycle kinetic analysis was used by flowing a range of FC5DIE3IR concentrations (320 nM-20 nM) at a flow rate of 30 μl/min, with 600 sec contact time and 1200 sec dissociation. Regeneration conditions were the same as above. Data were fit to a 1:1 binding model and analyzed using the Biacore T200 Software v3.0.
(§2) Surfaces were regenerated by washing with running buffer (HBS-EP). Data were analyzed with BIAevaluation 4.1 software as described (Hussack et al., 2011) and affinities determined using the steady state binding model.
(§3) Surface Plasmon Resonance (SPR) for monoclonal antibodies.

FC5DIE3IR [4] = biological target: T1, FC5DIE3IR; test: Hydrogen-Deuterium Exchange Mass Spectrometry (HDX-MS); format: binding; details: labelling 1, 10 and 60 min
VHH FC5 = test: Surface Plasmon Resonance of mAbs, FC5 control; format: binding; details: SPR; 25 °C
Sequence of VHH FC5 (as listed by the source): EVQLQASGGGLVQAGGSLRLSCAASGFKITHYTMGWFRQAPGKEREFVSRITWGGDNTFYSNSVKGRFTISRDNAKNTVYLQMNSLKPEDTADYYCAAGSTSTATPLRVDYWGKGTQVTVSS
Experimental: as §1, §2, §3

B1: 3A8: anti-hNav1.7 mouse monoclonal antibody, IgG2a, k; heavy chain SEQ ID NO: 12, light chain SEQ ID NO: 18 (antibody, V domains shown)
VH: QVQLQQPGAELVKPGASVKLSCKASGYTFTNYWMHWVKQRPGQGLEWIGEINPSNGRANYNEKFKSKATLTVDKSSSTAYMQLSSLTSEDSAVYYCARSPYGYYDYWGQGTTLTVSSAKTTAPSVYPLAP
VL: DVLMTQTPLSLPVSLGDQASISCRSSQSLLHSNGNTYFHWYLQKPGQSPKLLIYKVSNRFFGVPDRFSGSGSGTDFTLKISRVEAEDLGVYFCSQITHVPLTFGAGTKLELKRADAAPTVSIFPPSS
modifications: Heavy chain of the 3A8 antibody without leader sequence; Light chain of the 3A8 antibody without leader sequence
B1 was tested, and the “Percentage of effect after injection (on left paw withdrawal)” value (from here on “Percentage of effect after injection”) ([1]; 50 μg intraplantar, 0 h) was 0%, the Latency paw withdrawal ([1]; 50 μg intraplantar, 1 h) was 6.08 ± 0.70 s and the “Percentage of effect after injection” value ([1]; 50 μg intraplantar, 1 h) was 18.00%. The Latency paw withdrawal ([1]; 50 μg intraplantar, 2 h) was 7.38 ± 0.67 s, the “Percentage of effect after injection” value ([1]; 50 μg intraplantar, 2 h) was 24.09% and the Latency paw withdrawal ([1]; 50 μg intraplantar, 4 h) was 6.79 ± 0.50 s. For the same molecule, the “Percentage of effect after injection” value ([1]; 50 μg intraplantar, 4 h) was 22.40%, the “Maximum effect (% Effect)” value ([1]; 50 μg intraplantar, reached 2 hours after injection) was 24.09±3.69% and the “Percentage of effect after injection” value ([1]; 100 μg intraplantar, 0 h) was 0%. The Latency paw withdrawal ([1]; 100 μg intraplantar, 1 h) was 9.56 ± 0.70 s, the “Percentage of effect after injection” value ([1]; 100 μg intraplantar, 1 h) was 33.96% and the Latency paw withdrawal ([1]; 100 μg intraplantar, 2 h) was 10.58 ± 0.90 s. For the same molecule, the “Percentage of effect after injection” value ([1]; 100 μg intraplantar, 2 h) was 40.55%, the Latency paw withdrawal ([1]; 100 μg intraplantar, 4 h) was 10.28 ± 1.20 s and the “Percentage of effect after injection” value ([1]; 100 μg intraplantar, 4 h) was 40.18%. The “Maximum percentage of the effect (% Effect; % MPE)” value ([1]; 100 μg intraplantar, time of maximum (1, 2 or 4 h)) was 40.55±2.20%, the “Duration of the reversal of hyperalgesia” value ([1]; 30 mg/kg intravenous) was “up to 24 h” and the “Reversal of CFA-induced hyperalgesia (in words)” value ([1]; 30 mg/kg intravenous) was “able to reverse CFA-induced hyperalgesia”. The “Percentage of the maximum possible effect (% MPE)” value ([1]; 30 mg/kg intravenous (tail vein), 4 h) was 26.60±3.26%, the “Latency paw withdrawal time” value ([1]; 3A8 alone 75 μg intraplantar (FIG. 18)) was 10.59 ± 0.87 s and the “Reversal of hyperalgesia (% MPE)” value ([1]; 3A8 alone 75 μg intraplantar, 4 h) was 35.35%±4.44. The Latency paw withdrawal ([1]; intraplantar injection, 4 hours after administration (FIG. 10)) was 8.50 ± 0.94 s, the “Time spent in pain behaviors (saline plus OD1 = 100%)” value [2] was 73.76%±5.38 and the “ka” value (FC5DIE3IR [3]) was 7050 M⁻¹ s⁻¹. For the same molecule, the “kd” value (FC5DIE3IR [3]) was 0.000259 s⁻¹, the “Rmax (RU)” value (FC5DIE3IR [3]; Fc-captured mAb, FC5-DIE3IR flowed, 25 °C) was 80 RU and the “Binding to FC5DIE3IR (comment, in words)” value (FC5DIE3IR [3]; SPR, 25 °C) was “bound specifically FC5DIE3IR; also recorded: strong and specific binding; also recorded: strongly and specifically bound; also recorded: extremely slow off rate”. The “Stabilization of FC5DIE3IR in response to mAb binding (residues, differential HDX-MS)” value (FC5DIE3IR [4]) was “Asn121-Tyr134” and the “Binding to FC5 control (comment, in words)” value (VHH FC5) was “did not bind FC5; also recorded: No binding”.
